{
  "source": "patent US20250361268A1",
  "about": "“NOVEL ANTI-INFLAMMATORY PEPTIDE AND USE THEREOF” (NOVACELL TECHNOLOGY INC., priority 2022, published 2025)",
  "binders": {"B1": {"name": "peptide of SEQ ID NO 121 (peptide)", "peptide": "RWRYYPM", "HELM": "PEPTIDE1{[ac].R.W.R.Y.Y.P.[dM].[am]}$$$$V2.0", "SMILES": "CSCC[C@@H](NC(=O)[C@@H]1CCCN1C(=O)[C@H](Cc1ccc(O)cc1)NC(=O)[C@H](Cc1ccc(O)cc1)NC(=O)[C@H](CCCNC(=N)N)NC(=O)[C@H](Cc1c[nH]c2ccccc12)NC(=O)[C@H](CCCNC(=N)N)NC(C)=O)C(N)=O"}, "B2": {"name": "peptide of SEQ ID NO 137 (peptide)", "peptide": "IKYKVM", "HELM": "PEPTIDE1{[CCCCCCCC(=O)[*:2]].I.K.Y.K.V.[dM].[am]}$$$$V2.0", "SMILES": "CCCCCCCC(=O)N[C@H](C(=O)N[C@@H](CCCCN)C(=O)N[C@@H](Cc1ccc(O)cc1)C(=O)N[C@@H](CCCCN)C(=O)N[C@H](C(=O)N[C@H](CCSC)C(N)=O)C(C)C)[C@@H](C)CC"}, "B3": {"name": "peptide of SEQ ID NO 122 (peptide)", "peptide": "WRYYPM", "HELM": "PEPTIDE1{[ac].W.R.Y.Y.P.[dM].[am]}$$$$V2.0", "SMILES": "CSCC[C@@H](NC(=O)[C@@H]1CCCN1C(=O)[C@H](Cc1ccc(O)cc1)NC(=O)[C@H](Cc1ccc(O)cc1)NC(=O)[C@H](CCCNC(=N)N)NC(=O)[C@H](Cc1c[nH]c2ccccc12)NC(C)=O)C(N)=O"}, "B4": {"name": "peptide of SEQ ID NO 31 (peptide)", "peptide": "HMRYRVM", "HELM": "PEPTIDE1{H.M.R.Y.R.V.[dM].[am]}$$$$V2.0; N-terminus assumed", "SMILES": "CSCC[C@H](NC(=O)[C@@H](N)Cc1c[nH]cn1)C(=O)N[C@@H](CCCNC(=N)N)C(=O)N[C@@H](Cc1ccc(O)cc1)C(=O)N[C@@H](CCCNC(=N)N)C(=O)N[C@H](C(=O)N[C@H](CCSC)C(N)=O)C(C)C"}, "B5": {"name": "peptide of SEQ ID NO 14 (peptide)", "peptide": "MRYKVM", "HELM": "PEPTIDE1{[ac].M.R.Y.K.V.[dM].[am]}$$$$V2.0", "SMILES": "CSCC[C@H](NC(C)=O)C(=O)N[C@@H](CCCNC(=N)N)C(=O)N[C@@H](Cc1ccc(O)cc1)C(=O)N[C@@H](CCCCN)C(=O)N[C@H](C(=O)N[C@H](CCSC)C(N)=O)C(C)C"}, "B6": {"name": "peptide of SEQ ID NO 151 (peptide)", "peptide": "HKYWPM", "HELM": "PEPTIDE1{[CCCC(=O)[*:2]].H.K.Y.W.P.[dM].[am]}$$$$V2.0", "SMILES": "CCCC(=O)N[C@@H](Cc1c[nH]cn1)C(=O)N[C@@H](CCCCN)C(=O)N[C@@H](Cc1ccc(O)cc1)C(=O)N[C@@H](Cc1c[nH]c2ccccc12)C(=O)N1CCC[C@H]1C(=O)N[C@H](CCSC)C(N)=O"}, "B7": {"name": "peptide of SEQ ID NO 120 (peptide)", "peptide": "MRYYPM", "HELM": "PEPTIDE1{M.R.Y.Y.P.[dM].[am]}$$$$V2.0; N-terminus assumed", "SMILES": "CSCC[C@H](N)C(=O)N[C@@H](CCCNC(=N)N)C(=O)N[C@@H](Cc1ccc(O)cc1)C(=O)N[C@@H](Cc1ccc(O)cc1)C(=O)N1CCC[C@H]1C(=O)N[C@H](CCSC)C(N)=O"}, "B8": {"name": "peptide of SEQ ID NO 150 (peptide)", "peptide": "HKYWPM", "HELM": "PEPTIDE1{[ac].H.K.Y.W.P.[dM].[am]}$$$$V2.0", "SMILES": "CSCC[C@@H](NC(=O)[C@@H]1CCCN1C(=O)[C@H](Cc1c[nH]c2ccccc12)NC(=O)[C@H](Cc1ccc(O)cc1)NC(=O)[C@H](CCCCN)NC(=O)[C@H](Cc1c[nH]cn1)NC(C)=O)C(N)=O"}},
  "target": "T1, formyl peptide receptor 2 (FPR2) (UniProt P25090 1-351, limits assumed)",
  "T1 sequence (looked up)": "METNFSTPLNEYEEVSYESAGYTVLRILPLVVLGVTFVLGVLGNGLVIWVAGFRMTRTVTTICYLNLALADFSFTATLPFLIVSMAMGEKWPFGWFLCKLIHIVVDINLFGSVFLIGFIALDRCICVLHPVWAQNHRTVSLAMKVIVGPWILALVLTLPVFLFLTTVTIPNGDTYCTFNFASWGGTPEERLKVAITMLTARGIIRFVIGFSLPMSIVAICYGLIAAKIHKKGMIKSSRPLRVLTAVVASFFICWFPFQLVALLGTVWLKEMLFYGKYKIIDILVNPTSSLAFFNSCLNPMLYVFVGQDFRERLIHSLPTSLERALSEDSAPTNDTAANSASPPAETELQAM",
  "assay": "cell-based or functional assay",
  "data": [
    {"binder": "B1", "values": [
      {"measurement": "EC50 for [Ca2+]", "result": "< 10", "unit": "nM"}
    ]},
    {"binder": "B2", "values": [
      {"measurement": "EC50 for [Ca2+]", "result": "< 10", "unit": "nM"}
    ]},
    {"binder": "B3", "values": [
      {"measurement": "EC50 for [Ca2+]", "result": "< 10", "unit": "nM"}
    ]},
    {"binder": "B4", "values": [
      {"measurement": "EC50 for [Ca2+]", "result": "< 10", "unit": "nM"}
    ]},
    {"binder": "B5", "values": [
      {"measurement": "EC50 for [Ca2+]", "result": "< 10", "unit": "nM"}
    ]},
    {"binder": "B6", "values": [
      {"measurement": "EC50 for [Ca2+]", "result": "< 10", "unit": "nM"}
    ]},
    {"binder": "B7", "values": [
      {"measurement": "EC50 for [Ca2+]", "result": "< 10", "unit": "nM"}
    ]},
    {"binder": "B8", "values": [
      {"measurement": "EC50 for [Ca2+]", "result": "< 10", "unit": "nM"}
    ]}
  ]
}
